Laboratory results reported in the supplement of paper PMC9732359.
± gives the uncertainty stated by the source.

Assay: protein stability index of a GFP-peptide fusion (yeast GPS) (PSI 1-4); higher = more stable; sorted into four equal gates, so the index is relative within each strain
In short: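 The protein stability index combines read frequencies across sorting gates, each weighted by its gate number and then summed. To obtain those frequencies, a pooled yeast library of GFP fusions to tiled 17-residue yeast protein peptides, on a plasmid also expressing Cherry, was grown to mid-log phase in leucine-free medium. The cells were sorted into four equal gates by GFP/Cherry ratio before plasmid amplification by PCR and Illumina sequencing.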

Sequence	protein stability index (doa10∆)	protein stability index (pdr5∆)	protein stability index (san1∆)	protein stability index (ubr1∆)
DRELSVRNACKRLIAHD [YCG1]	2.59 ± 0.097	2.77 ± 0.27	2.49 ± 0.26	2.67 ± 0.18
ELSTDIILKTRQINKLI [SRB7]	1.2 ± 0.13	1.19 ± 0.066	1.37 ± 0.23	1.2 ± 0.13
LNSLSPQAILAKNSIID [SWI1]	1.79 ± 0.033	1.72 ± 0.029	1.8 ± 0.044	1.75 ± 0.026
GAEDPKVLINDQLSTIS [SWI1]	3.27 ± 0.18	3.24 ± 0.25	3.32 ± 0.21	–
KIQASDVNIIGKDRIAI [RPO31]	2.82 ± 0.11	3.05 ± 0.098	2.87 ± 0.087	3.35 ± 0.081
AELEELEEFEFKHGPMS [SMD2]	3.42 ± 0.078	3.41 ± 0.063	3.15 ± 0.058	3.34 ± 0.071
DEITEDMFEMSDEEENN [SSN2]	3.16 ± 0.099	3.39 ± 0.11	3.25 ± 0.08	3.2 ± 0.075
CNSLHIPQDFENEVSDI [ESC2]	2.95 ± 0.06	3.03 ± 0.056	2.93 ± 0.088	2.92 ± 0.045
TNAFLDSLTRAVKDQQK [SNF2]	2.46 ± 0.072	2.47 ± 0.071	2.68 ± 0.049	2.56 ± 0.046
YSPKQDEQKHNENENSR [RPO21]	2.69 ± 0.059	2.54 ± 0.064	2.63 ± 0.07	2.67 ± 0.056
KDERGEGEAKQKRNAHG [ITC1]	3.21 ± 0.18	3.69 ± 0.23	3.46 ± 0.098	3.34 ± 0.14
LDLIPHSSSVFKGTDFV [SRB4]	2.42 ± 0.062	2.74 ± 0.057	2.89 ± 0.068	2.4 ± 0.041
TDQILQLLKEDSEKRNK [RRP45]	3.12 ± 0.16	3.3 ± 0.29	3.52 ± 0.098	3.36 ± 0.11
PNCLFILKLLNGFMESA [SOH1]	1.9 ± 0.17	1.54 ± 0.12	1.68 ± 0.18	1.44 ± 0.18
VKEMEPKQSDEYLKRVS [SIR3]	2.69 ± 0.056	2.74 ± 0.057	3.05 ± 0.05	2.54 ± 0.076
KVSPEELPLVITMPATN [ARP7]	2.64 ± 0.053	2.68 ± 0.065	2.57 ± 0.053	2.57 ± 0.042
LKIFQEQSLEVFIFPTS [SRB8]	2.12 ± 0.083	1.96 ± 0.054	2.29 ± 0.056	2.28 ± 0.041
KVMNNSFKLCTLLIAIR [YML103C/NUP188]	1.47 ± 0.063	1.69 ± 0.087	1.96 ± 0.15	1.63 ± 0.09
LKKKYQIILDRFAPDNQ [SIR3]	1.9 ± 0.09	1.85 ± 0.082	1.68 ± 0.13	1.74 ± 0.062
ELCKKNESKIKELNEKI [RPN7]	3.2 ± 0.12	2.73 ± 0.098	2.27 ± 0.11	2.47 ± 0.13
PSNESCSPWSLQISDIP [SRB5]	2.87 ± 0.058	2.78 ± 0.047	2.97 ± 0.039	2.91 ± 0.032
VMSSDDENAPVATNANA [PRE10]	3.27 ± 0.18	3.42 ± 0.11	3.15 ± 0.13	2.5 ± 0.26
IVSPQSNKPCMGIVQDT [RPO21]	1.74 ± 0.064	1.68 ± 0.047	1.76 ± 0.098	1.58 ± 0.046
KEEFSSDESIERLMTWK [RRI2]	2.49 ± 0.08	2.77 ± 0.076	2.55 ± 0.11	2.43 ± 0.17
ELRSLSKKDFKIIDNPK [YMR129W/POM152]	2.46 ± 0.058	2.6 ± 0.06	2.24 ± 0.081	2.93 ± 0.07
YFPEGYNNKVGVAASQG [SIR2]	1.64 ± 0.055	2.03 ± 0.063	2.04 ± 0.16	1.81 ± 0.062

Sequence	protein stability index (doa10∆)	protein stability index (pdr5∆)	protein stability index (san1∆)	protein stability index (ubr1∆)
HNAKNGTLDKNSQTVSG [SNF2]	1.98 ± 0.13	2.42 ± 0.2	2.37 ± 0.2	2.96 ± 0.16
ITIQDLLFPKSTIVNLA [DPB4]	2.45 ± 0.066	2.71 ± 0.11	2.51 ± 0.069	2.59 ± 0.083
MKYDIFAKFIHHIHHFE [IRR1]	2.03 ± 0.079	2.54 ± 0.055	2.46 ± 0.065	2.74 ± 0.05
ILYTSKIVFILDSDSEN [RRI2]	1.76 ± 0.065	1.88 ± 0.047	1.43 ± 0.09	1.71 ± 0.037
NLTSEIEDLRADINSNR [YOR098C/NUP1]	2.98 ± 0.27	3.07 ± 0.12	2.83 ± 0.12	3.03 ± 0.084
KFELGRQPANTKIGAKR [RPS8A]	2.87 ± 0.06	3.1 ± 0.068	2.91 ± 0.11	3.18 ± 0.055
PEVVELCQKSPVMADLN [FAS2]	2.63 ± 0.074	2.69 ± 0.078	2.48 ± 0.11	2.73 ± 0.085
ALKRSYGIFGEGVEYSF [POP8]	2.45 ± 0.092	2.71 ± 0.052	2.46 ± 0.097	2.86 ± 0.051
KIHSILPVMESLDSCTA [YJR042W/NUP85]	2.24 ± 0.09	2.23 ± 0.079	2 ± 0.13	2.24 ± 0.068
NINNNINSTKNGKDNNN [MED2]	3.28 ± 0.068	3.26 ± 0.053	3.24 ± 0.045	3.35 ± 0.041
RYRVDLLNTDHTLDPSL [RPO21]	3.09 ± 0.072	2.95 ± 0.053	2.92 ± 0.05	2.9 ± 0.062
LASKAARKSAPSTGGVK [HHT1]	2.89 ± 0.15	3.12 ± 0.12	2.99 ± 0.076	3.05 ± 0.1
ETDHKTNENGETDDNIE [SRB4]	3.01 ± 0.22	3.57 ± 0.15	3.08 ± 0.083	3.21 ± 0.089
SSGVLSSNIAGTNPLSS [SSN2]	3.41 ± 0.13	2.9 ± 0.12	2.83 ± 0.19	3.31 ± 0.088
VVDILSANGYLNATTAM [BRR2]	2.75 ± 0.21	3.3 ± 0.22	3.17 ± 0.16	3.06 ± 0.2
KESQLPRIQRADPVALY [RPB5]	2.32 ± 0.069	2.63 ± 0.058	2.5 ± 0.089	2.59 ± 0.048
YKPGSITLENITRLCQT [MED1]	2.14 ± 0.044	2.23 ± 0.041	1.79 ± 0.046	1.99 ± 0.032
TLETIEIHPITFPPEVL [RRP43]	1.9 ± 0.045	2.25 ± 0.045	2.3 ± 0.06	2.01 ± 0.035
TLNNIFRFDSIQRETLL [GRR1]	2.88 ± 0.075	2.59 ± 0.081	2.75 ± 0.052	3.1 ± 0.04
YLEELERKKQSDVLRFL [RPL15B]	1.34 ± 0.16	2.23 ± 0.22	1.44 ± 0.25	1.54 ± 0.1
TEKQRKKQIAFPQRKYA [RPL35A]	1.16 ± 0.062	1.44 ± 0.096	1.13 ± 0.21	1.15 ± 0.08
KDLSNYRKTEGIFEKAK [YMR153W/NUP53]	3.01 ± 0.11	2.75 ± 0.1	3.04 ± 0.1	2.74 ± 0.086
NFFQAPQDYVLERVKRI [YML031W/NDC1]	2.81 ± 0.064	2.62 ± 0.045	2.9 ± 0.068	2.77 ± 0.036
QDPIFGSVLLTLLNFVS [ECM29]	1.63 ± 0.049	1.42 ± 0.052	1.5 ± 0.098	1.41 ± 0.063
ETAQAINGWELTKAQKY [RPL17A]	3.27 ± 0.055	3.35 ± 0.049	3.18 ± 0.034	3.28 ± 0.043
KSNDSEGDFLKSIIGKL [POP1]	1.28 ± 0.12	2.91 ± 0.088	1.93 ± 0.11	1.3 ± 0.15
